The data set concerns the molecule itself. As to the kind of experiment: size exclusion chromatography (homodimerization) of GFP-tagged PAN domain purified from HEK293 cells. From the text: These cysteine residues coordinate three disulfide bridges to form a hairpin structure. The inventors hypothesized that cysteine rich PAN domain of G-lecRLKs form disulfide bonds involved in dimerization and subsequent receptor proteolysis to prevent downstream signaling cascades. To address this hypothesis, a GFP tagged PAN domain construct of RLK5 was made. In addition, mutated amino acids in the RLK5 vestigial domain were restored to consensus PAN domain amino acids based on the alignment in FIG. 1, this construct was designated RLK5-restored (RLK5R). Both RLK5 and RLK5R constructs were transfected and overexpressed in HEK293 cells. Proteins were purified on GFP column and loaded into size exclusion column (SEC) to analyze the oligomeric state.
A general note: SEC sorts molecules by how far they enter the pores of the column.

B1: GFP tagged PAN domain construct of RLK5 (SapurV1A.0037s0270.1) (receptor)
chain: DSDYNMDTYEHTFLYGIYPPNEAIIIASLQQCREVCMQDPGCTAATFTNDGTSQCRMKTSPYFSGHQNPSLSSISFVKT
notes: It was expressed in HEK293 cells and purified on a GFP column; not shown: GFP tag
As to B1, the binding result was “no binding”.
